How the values were obtained:
[1] = target: human salivary α-amylase (Type IX A, Sigma Chemical Co.) (human); assay: ELISA: amylase (10.0 µg/ml) coated, 65 kDa protein added, detected with rat anti-65 kDa serum
[2] = target: human whole saliva (human); assay: ELISA: 1:2 dilution of whole saliva coated, 65 kDa protein added, detected with rat anti-65 kDa serum

Sequence of human salivary α-amylase (Type IX A, Sigma Chemical Co.) (human) (P0DUB6 16-511): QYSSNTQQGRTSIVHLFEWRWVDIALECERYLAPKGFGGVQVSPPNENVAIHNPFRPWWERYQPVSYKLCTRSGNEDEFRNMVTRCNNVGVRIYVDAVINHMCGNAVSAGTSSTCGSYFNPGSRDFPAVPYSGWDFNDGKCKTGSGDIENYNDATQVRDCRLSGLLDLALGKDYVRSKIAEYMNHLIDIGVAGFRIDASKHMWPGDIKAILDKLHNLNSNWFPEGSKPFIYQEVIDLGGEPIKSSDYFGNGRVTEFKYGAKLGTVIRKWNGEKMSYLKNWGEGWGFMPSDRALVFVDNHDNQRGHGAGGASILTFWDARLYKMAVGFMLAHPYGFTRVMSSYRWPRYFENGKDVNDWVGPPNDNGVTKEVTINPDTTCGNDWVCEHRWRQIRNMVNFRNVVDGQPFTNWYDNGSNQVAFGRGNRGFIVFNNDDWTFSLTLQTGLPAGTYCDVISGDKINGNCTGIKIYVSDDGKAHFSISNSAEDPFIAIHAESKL

## purified 65 kDa fimbrial protein of S. mutans A32-2 (serotype c) (enzyme)
[1]
  O.D. (ELISA absorbance at 490 nm): 0.25 O.D.
[2]
  O.D. (ELISA absorbance at 490 nm): 0.26 O.D.

— US20050207995A1
